Assay results taken from PMC6309224.

Columns and labels:
[1] = molecular target: DIP-α ectodomain (isoform A Phe40-Pro341) (Drosophila melanogaster); test: AUC
[2] = molecular target: DIP-ζ ectodomain (isoform A Glu111-Tyr412) (Drosophila melanogaster); test: AUC
[3] = molecular target: DIP-η ectodomain (isoform B Gln31-Pro338) (Drosophila melanogaster); test: AUC
[4] = molecular target: DIP-ι ectodomain (Phe23-Ala325) (Drosophila melanogaster); test: SPR
[5] = molecular target: DIP-η ectodomain (isoform B Gln31-Pro338) (Drosophila melanogaster); test: SPR
[6] = molecular target: DIP-α ectodomain (isoform A Phe40-Pro341) (Drosophila melanogaster); test: SPR
[7] = molecular target: DIP-θ ectodomain (Asp128-Pro423) (Drosophila melanogaster); test: SPR
[8] = molecular target: DIP-β ectodomain (isoform C Ile82-Glu408) (Drosophila melanogaster); test: SPR
[9] = molecular target: Dpr12 ectodomain (Dpr12C Ser72-Asp285) (Drosophila melanogaster); test: AUC
[10] = molecular target: DIP-ζ ectodomain (isoform A Glu111-Tyr412) (Drosophila melanogaster); test: SPR
[11] = molecular target: DIP-ε ectodomain (Glu50-Ser351) (Drosophila melanogaster); test: SPR
[12] = molecular target: Dpr21 ectodomain (Asp48-Asp253) (Drosophila melanogaster); test: AUC

## DIP-α ectodomain (isoform A Phe40-Pro341) (domain or fragment)
[1]
  Kd: 23.9 µM

## DIP-ζ ectodomain (isoform A Glu111-Tyr412) (domain or fragment)
[2]
  Kd: 22.2 µM

## DIP-η ectodomain (isoform B Gln31-Pro338) (domain or fragment)
[3]
  Kd: 35.4 µM

## Dpr2 ectodomain (Dpr2F Tyr103-Glu323) (domain or fragment)
[4]
  Kd: 22.4 µM
[5]
  Kd: 41 µM

## Dpr4 D74N A76T K82H K136V ectodomain (domain or fragment)
[6]
  Kd: 16 µM

## Dpr4 K82H K136V ectodomain (domain or fragment)
[7]
  fold weaker binding than wild-type Dpr4: > 4 fold
[5]
  fold weaker binding than wild-type Dpr4: > 4 fold
[6]
  Kd: 44.9 µM

## Dpr4 K82H ectodomain (domain or fragment)
[6]
  Kd: > 400 µM

## Dpr6 H110K ectodomain (domain or fragment)
[6]
  fold decrease in binding against wild-type Dpr6: 25 fold

## Dpr6 N102D H110K V164K ectodomain (domain or fragment)
[7]
  Kd: 72 µM
[5]
  Kd: 119 µM

## Dpr6 ectodomain (Dpr6C Trp70-Glu275) (domain or fragment)
[8]
  Kd: 19.4 µM

## Dpr7 ectodomain (Dpr7F Thr37-Glu269) (domain or fragment)
[4]
  Kd: 136 µM

## Dpr10 ectodomain (Dpr10D Trp50-Glu255) (domain or fragment)
[8]
  Kd: 54.9 µM

## Dpr11 ectodomain (Dpr11B Leu114-Glu324) (domain or fragment)
[8]
  Kd: 94 µM

## Dpr12 ectodomain (Dpr12C Ser72-Asp285) (domain or fragment)
[9]
  Kd: 71.3 µM

## Dpr14 ectodomain (Dpr14A Thr26-Glu283) (domain or fragment)
[10]
  Kd: 106 µM
[11]
  Kd: 69.2 µM

## Dpr18 ectodomain (His214-Glu478) (domain or fragment)
[10]
  Kd: 24.7 µM
[11]
  Kd: 21.2 µM

## Dpr21 ectodomain (Asp48-Asp253) (domain or fragment)
[12]
  Kd: 49.1 µM
